The results in this text go back to patent US20170174769A1 (Regeneron, published 2017).

Where “and” joins values, the source holds several entries; their conditions need not be identical. Identical values can stand only once. Like-named read-outs stand apart in the source and are kept apart here.

First the molecules themselves.
T1: mouse FGF21 (mouse, UniProt Q9JJN1 29-210)
T1 construct: also called mFGF21 (Prospec, # CYT-339)
T1 sequence (looked up): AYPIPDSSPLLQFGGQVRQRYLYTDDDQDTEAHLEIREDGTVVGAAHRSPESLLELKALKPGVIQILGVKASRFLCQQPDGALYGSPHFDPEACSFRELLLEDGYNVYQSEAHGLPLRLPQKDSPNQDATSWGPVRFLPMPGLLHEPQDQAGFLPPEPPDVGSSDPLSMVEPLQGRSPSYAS

T2: rat FGF21 (rat, UniProt A0A7U3JW68 29-208)
T2 sequence: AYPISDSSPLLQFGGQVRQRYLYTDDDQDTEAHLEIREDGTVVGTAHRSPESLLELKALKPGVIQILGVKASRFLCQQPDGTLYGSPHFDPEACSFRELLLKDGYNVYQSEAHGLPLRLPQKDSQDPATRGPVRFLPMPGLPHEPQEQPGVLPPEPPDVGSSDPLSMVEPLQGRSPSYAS

T3: biotinylated human FGF21 expressed with a N-terminal hexahistidine tag (human, UniProt Q9NSA1 29-209, biotinylated (site not stated))
T3 construct: also called biotin-6His-hFGF21; biotin 6His-hFGF21
T3 sequence: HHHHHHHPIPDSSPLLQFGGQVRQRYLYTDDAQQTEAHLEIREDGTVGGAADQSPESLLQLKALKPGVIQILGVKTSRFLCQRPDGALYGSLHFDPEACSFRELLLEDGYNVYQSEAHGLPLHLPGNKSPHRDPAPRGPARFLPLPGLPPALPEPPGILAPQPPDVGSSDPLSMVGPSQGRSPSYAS

T4: recombinant cynomolgus monkey FGF21 with an N-terminal hexahistidine tag (cynomolgus monkey)
T4 construct: also called His6-MfFGF21; mfFGF21
T4 chain: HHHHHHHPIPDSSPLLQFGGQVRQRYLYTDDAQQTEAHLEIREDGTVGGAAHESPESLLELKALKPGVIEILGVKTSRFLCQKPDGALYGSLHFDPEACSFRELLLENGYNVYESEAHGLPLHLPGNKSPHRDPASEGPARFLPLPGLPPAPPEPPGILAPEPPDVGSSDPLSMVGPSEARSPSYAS

B1: H4H6879P (antibody, V domains shown)
VH: QVQLQESGPGLVKPSETLSLTCTVSGGSISGYYWSWIRQPPGKGLEWIGYFYNSGSTNYNPSLKSRVTMSVDTSKNQFSLRLTSVTAADTAVYYCTRERELLYFDYWGQGTLVTVSS
VL: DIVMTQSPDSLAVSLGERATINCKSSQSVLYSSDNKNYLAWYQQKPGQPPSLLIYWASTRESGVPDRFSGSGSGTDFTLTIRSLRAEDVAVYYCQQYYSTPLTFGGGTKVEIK
notes: human IgG4 Fc (H4H prefix)
B2: H4H6915P (antibody, V domains shown)
VH: QVQLVESGGGVVQPGRSLRLSCAASGFTFSSYVMHWVRQAPGKGLEWVSVISYDGGNKYYADSVKGRFTISRDNSKNTLDLQMNSLRAEDTAVYYCAKEDDYIWGGFFDLWGRGTLVTVSS
VL: DIQMTQSPSSLSASVGDRVTITCRASQGIRNDLGWYQKKPGKAPKRLISAAYSLQSGVTSRFSGSGSGTEFTLTISSLQPEDFATYYCLQHNSYPWTFGQGTKVEIK
notes: human IgG4 Fc (H4H prefix)
B3: H2M6509N (antibody, V domains shown)
VH: EVQLVESGGGLVKPGGSLRLSCAASGFTFSNAWMSWVRQAPGKGLDWVGRIKNKLDGGTTDYAAPVKGRFTISRDDSKNTLYLQMNSLKTEDTAVYYCTTDHGWNYYYGMDVWGQGTTVTVSS
VL: DIQMTQSPSSLSASVGDRVTITCRASQDISNYLAWFQHKPGKAPKSLIYAASSLQGGVPSKFSGSGSGTDFTLTISSLQPEDFATYYCQQYNTYPPTFGAGTKVEIK
notes: mouse IgG2 Fc (H2M prefix); also called H2aM6509N
B4: recombinant human FGF21 expressed with an N-terminal hexahistidine tag (ligand)
chain: T3 sequence
B5: H2M6504N (antibody, V domains shown)
VH: EVHLVESGGGLVQPGRSLRLSCVASGFTFDDYAMHWVRQVPGKGLEWVSVITWNSGSIGYADSVKGRFTISRDNAKNSLFLQVSSLRAEDTALYYCAKGISPTGTTPDYWGQGTLVTVSS
VL: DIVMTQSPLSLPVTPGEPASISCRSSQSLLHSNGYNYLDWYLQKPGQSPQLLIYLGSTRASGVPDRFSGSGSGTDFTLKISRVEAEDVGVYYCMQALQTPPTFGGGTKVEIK
notes: mouse IgG2 Fc (H2M prefix); also called H2aM6504N
B6: H4H6504N (antibody, V domains shown)
VH: B5 VH
VL: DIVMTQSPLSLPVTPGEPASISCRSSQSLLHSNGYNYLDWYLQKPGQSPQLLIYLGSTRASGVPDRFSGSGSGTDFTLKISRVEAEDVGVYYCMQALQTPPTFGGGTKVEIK
notes: 6504N variable domains on human IgG4 Fc (H4H prefix)
B7: H2M6499N (antibody, V domains shown)
VH: QVHLVQSGAEVKKPGASVKVSCKASGYSFTDYYVHWVRQAPGQGLEWMGWFNPKSGDTNSVQKFQGRVSMTGDTSITTAYLDLRRLTSDDTAVYYCGRSGYFDFWGQGTLVTVSS
VL: DVVMTQSPLSLSVTLGQPASISCRSSQSLVFSDGNTFLNWFQQRPGQSPRRLIYNLSNRDSGVPDRFSGSGSGTDFTLKISGVEAEDVGVYYCMQGTHWPLTFGGGTKVEIK
notes: human variable domains, mouse IgG2 Fc (H2M prefix); also called H2aM6499N

One test concerns the target T1, mouse FGF21. Put plainly: not described.
A further test has as its target T2, rat FGF21. The test can be described thus: not described.
Test [1] deals with B4. Put plainly: cell-based or functional assay.
The target of test [2] is T3, biotinylated human FGF21 expressed with …. The test can be described thus: competition ELISA: mAb blocks 300 pM biotin-6His-hFGF21 binding to coated hKLB-10his. The procedure:
The ability of anti-FGF21 antibodies to block human FGF21 binding to a cognate binding partner human klotho beta was evaluated with an ELISA-based immunoassay. Briefly, human klotho beta (hKLB-10his; R&D systems, #5889-KB-050) was coated at 2μg/mL on a 96-well plate in PBS buffer overnight at 4° C. […] The equilibrated sample solutions were then transferred to hKLB-10his-coated plates. […] Samples were developed with a TMB solution to produce a colorimetric reaction and then neutralized with 1M sulfuric acid before measuring absorbance at 450 nm on a Victor plate reader. Data analysis was performed using a sigmoidal dose-response model within Prism™ software (GraphPad).
The absorbance values of the wells containing the highest concentration for each antibody were used to determine the percent maximum blockade.
(An ELISA detects its analyte on a solid surface through an enzyme-linked reagent.)

Test [3] addresses B4. The test can be described thus: SPR Biacore 4000, mAb captured, 25 C. On the procedure:
(§1) Antibodies were captured on a goat anti-mouse IgG polyclonal antibody (GE Healthcare, BR-1008-38) surface created through direct amine coupling of the anti-IgG antibodies to a Biacore CM5 sensor chip. Kinetic experiments were carried out using HBS-EP (10 mM HEPES, 150mM NaCl, 3 mM EDTA, 0.05% Surfactant P20, pH 7.4) as both the running buffer and the sample buffer. […] Antibody-antigen association was monitored for 180 seconds while dissociation in buffer was monitored for 300 seconds. Kinetic association (kₐ) and dissociation (kd) rate constants were determined by processing and fitting the data using Scrubber software version 2.0c. Binding dissociation equilibrium constants (KD) and dissociative half-lives (t_{1/2}) were calculated from the kinetic rate constants as: KD =kd/kₐ and t112 =In(2)/kd.
Background: SPR reads the build-up and loss of mass on a sensor chip optically.

In test [4] the target is T4, recombinant cynomolgus monkey FGF21 …. Put plainly: SPR Biacore 4000, mAb captured, 25 C. On the procedure: as §1
The target of test [5] is B4. The test can be described thus: SPR Biacore 4000, mAb captured, 37 C. On the procedure: as §1
Test [6] has as its target T4, recombinant cynomolgus monkey FGF21 …. Put plainly: SPR Biacore 4000, mAb captured, 37 C. The procedure: as §1
For test [7], the target named is T5, human KLB and human FGFR1c co-expressed on HEK293/hKLB/hFGFR1c/SRE-luc cells (human, UniProt Q86Z14 1-1044; P11362 22-822). Put plainly: cell-based or functional assay.
Test [8] deals with mouse KLB and mouse FGFR1c co-expressed on HEK293/mKLB/mFGFR1c/SRE-Luc cells (mouse). The test can be described thus: cell-based or functional assay.
In test [9] the target is T5, human KLB and human FGFR1c co-expressed …. Put plainly: cell-based or functional assay. This is another data set of the same source.
The target is the same in test [10]. The test can be described thus: cell-based or functional assay. The source holds these as a separate data set.
The target in test [11] is T6, cell-surface human FGFR1c (amino acids 1-731 of NP_075594) with cell-surface human KLB on … (human, UniProt P11362 22-822). Put plainly: cell-based or functional assay.
The target in test [12] is T6, cell-surface human FGFR1c (amino acids …). The test can be described thus: cell-based or functional assay. The source holds these as a separate data set.

T6 sequence (P11362 22-822, chain 1 of 2): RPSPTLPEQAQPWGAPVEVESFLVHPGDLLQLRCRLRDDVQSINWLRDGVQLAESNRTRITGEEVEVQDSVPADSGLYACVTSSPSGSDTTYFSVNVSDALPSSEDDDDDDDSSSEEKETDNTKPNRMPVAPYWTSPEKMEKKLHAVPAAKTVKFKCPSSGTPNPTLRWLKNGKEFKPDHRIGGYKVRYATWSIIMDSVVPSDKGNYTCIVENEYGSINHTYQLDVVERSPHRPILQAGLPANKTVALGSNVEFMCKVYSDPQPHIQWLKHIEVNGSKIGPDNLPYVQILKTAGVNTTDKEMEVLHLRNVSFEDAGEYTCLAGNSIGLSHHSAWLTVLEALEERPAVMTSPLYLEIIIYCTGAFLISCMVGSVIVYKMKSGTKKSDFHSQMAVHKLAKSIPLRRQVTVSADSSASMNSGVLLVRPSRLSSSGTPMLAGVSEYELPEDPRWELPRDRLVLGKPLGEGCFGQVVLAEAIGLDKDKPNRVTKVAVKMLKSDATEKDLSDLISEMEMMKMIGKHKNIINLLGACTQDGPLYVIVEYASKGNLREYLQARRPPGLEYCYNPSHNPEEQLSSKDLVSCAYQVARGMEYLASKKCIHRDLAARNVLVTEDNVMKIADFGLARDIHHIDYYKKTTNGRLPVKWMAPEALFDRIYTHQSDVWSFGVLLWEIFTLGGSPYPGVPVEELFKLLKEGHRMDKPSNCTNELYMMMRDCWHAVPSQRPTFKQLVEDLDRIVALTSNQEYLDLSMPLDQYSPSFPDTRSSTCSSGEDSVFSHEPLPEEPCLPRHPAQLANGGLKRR
T6 sequence (chain, as listed by the source, chain 2 of 2): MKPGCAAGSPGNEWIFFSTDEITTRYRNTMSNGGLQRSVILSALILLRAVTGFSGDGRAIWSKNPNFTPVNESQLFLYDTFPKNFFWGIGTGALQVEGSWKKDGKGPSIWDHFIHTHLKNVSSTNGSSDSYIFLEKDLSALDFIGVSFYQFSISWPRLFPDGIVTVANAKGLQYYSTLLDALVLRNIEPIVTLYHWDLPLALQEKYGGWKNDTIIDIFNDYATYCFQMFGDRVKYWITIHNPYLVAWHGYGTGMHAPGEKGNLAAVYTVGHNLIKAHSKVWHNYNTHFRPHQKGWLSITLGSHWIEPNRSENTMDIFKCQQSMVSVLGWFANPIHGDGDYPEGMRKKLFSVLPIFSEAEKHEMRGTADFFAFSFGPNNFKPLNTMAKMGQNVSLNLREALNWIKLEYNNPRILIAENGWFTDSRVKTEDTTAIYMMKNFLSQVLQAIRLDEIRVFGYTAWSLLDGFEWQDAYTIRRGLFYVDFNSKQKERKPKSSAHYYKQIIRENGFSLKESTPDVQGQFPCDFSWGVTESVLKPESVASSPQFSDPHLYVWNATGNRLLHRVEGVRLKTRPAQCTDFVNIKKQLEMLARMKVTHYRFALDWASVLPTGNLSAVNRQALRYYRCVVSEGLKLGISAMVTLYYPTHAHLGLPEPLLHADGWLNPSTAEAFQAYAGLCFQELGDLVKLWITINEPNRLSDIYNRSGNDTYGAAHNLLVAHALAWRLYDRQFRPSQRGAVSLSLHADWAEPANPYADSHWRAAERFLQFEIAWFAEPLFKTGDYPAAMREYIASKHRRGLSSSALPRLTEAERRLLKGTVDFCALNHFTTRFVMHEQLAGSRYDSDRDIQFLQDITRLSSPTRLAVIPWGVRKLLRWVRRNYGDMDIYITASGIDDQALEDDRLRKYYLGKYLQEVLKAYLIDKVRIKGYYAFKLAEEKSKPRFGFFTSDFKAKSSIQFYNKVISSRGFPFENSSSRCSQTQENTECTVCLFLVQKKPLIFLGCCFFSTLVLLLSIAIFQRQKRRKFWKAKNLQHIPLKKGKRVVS
T5 sequence (Q86Z14 whole entry, chain 1 of 2): as the sequence (chain, as listed by the source, chain 2 of 2) above
T5 sequence (P11362 other isoform, or with tags, fused parts or gaps limits assumed, chain 2 of 2): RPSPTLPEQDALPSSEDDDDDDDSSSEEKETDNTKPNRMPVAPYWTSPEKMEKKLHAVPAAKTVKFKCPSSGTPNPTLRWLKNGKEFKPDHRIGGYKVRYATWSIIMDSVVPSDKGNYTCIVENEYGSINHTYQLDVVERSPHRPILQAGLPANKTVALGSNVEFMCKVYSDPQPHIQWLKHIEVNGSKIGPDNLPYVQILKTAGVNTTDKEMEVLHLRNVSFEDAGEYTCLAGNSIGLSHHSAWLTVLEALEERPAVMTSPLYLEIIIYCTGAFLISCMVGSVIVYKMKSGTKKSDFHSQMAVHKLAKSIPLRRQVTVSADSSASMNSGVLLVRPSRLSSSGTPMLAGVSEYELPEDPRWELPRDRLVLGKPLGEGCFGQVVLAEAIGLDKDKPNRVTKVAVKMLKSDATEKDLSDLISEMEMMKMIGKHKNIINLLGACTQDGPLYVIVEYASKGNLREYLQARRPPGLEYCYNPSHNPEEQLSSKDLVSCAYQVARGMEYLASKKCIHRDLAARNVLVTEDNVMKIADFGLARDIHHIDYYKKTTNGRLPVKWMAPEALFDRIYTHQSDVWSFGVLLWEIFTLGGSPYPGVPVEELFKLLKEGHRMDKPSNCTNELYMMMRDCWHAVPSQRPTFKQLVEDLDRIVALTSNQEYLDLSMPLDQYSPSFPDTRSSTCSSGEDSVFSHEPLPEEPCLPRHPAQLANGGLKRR

Turning to B1, the binding result in the test with mouse FGF21 is recorded as “no binding”. The binding result with rat FGF21 was “no binding”. In addition, in [1], the “IC50, inhibition of 1 nM FGF21 activation of 293/hKLB/FGFR1c/SRE-Luc cells” value is 1.3 nM. Besides, in test [2], the “% Blocking at 100 nM Antibody Concentration” value (“% Blocking” below) stood at 34% and the IC50 – broadly, the midpoint of a concentration-inhibition curve – is greater than 100 nM.

With B2, the binding result with mouse FGF21 and in the test with rat FGF21 was “no binding” in each case. For the same molecule, the “IC50, inhibition of 1 nM FGF21 activation of 293/hKLB/FGFR1c/SRE-Luc cells” value in [1] is 0.5 nM. Moreover, the “% Blocking” value in [2] was 8%.

Take B3: the “IC50, inhibition of 1 nM FGF21 activation of 293/hKLB/FGFR1c/SRE-Luc cells” value in [1] was found to be 9.1 nM. In test [3], the Kd (in general, the concentration at which binding is half-saturated) turned out to be 26.6 nM; the koff (in general, the rate constant with which the complex falls apart) amounted to 0.00297 s⁻¹; the on-rate constant (kon) (in general, a measure of how fast the partners come together) was 111000 M⁻¹ s⁻¹; the t1/2 turned out to be 3.9 min. In addition, in test [4], the Kd amounted to 47.6 nM, the off-rate constant (koff) stood at 0.00316 s⁻¹, the on-rate (kon) was found to be 66000 M⁻¹ s⁻¹ and the t1/2 worked out at 3.7 min. Moreover, in test [5], the Kd is 58.9 nM, the koff is 0.0139 s⁻¹, the on-rate (kon) stood at 236000 M⁻¹ s⁻¹ and the t1/2 is 0.8 min. Further, in test [6], the equilibrium dissociation constant (Kd) was determined as 109 nM, the koff came to 0.0142 s⁻¹, the kon was found to be 130000 M⁻¹ s⁻¹ and the t1/2 is 0.8 min. Moreover, in [2], the “% Blocking” value stood at 31% and the IC50 was greater than 100 nM.

Consider B4, for which the “EC50, SRE-luc activation by ligand” value in test [7] was 1.9 nM; in test [9], 0.73 nM and 1.4 nM; in test [10] it was 2.4 nM and 2.2 nM. In addition, the “EC50, SRE-luc activation” value in [8] is 0.41 nM; in test [11], 1.1 nM; in test [12], 1.4 nM. The “% Activation” value in test [11] and in [12] was 100% in each case.

As for B5, the “IC50, inhibition of 1 nM FGF21 activation of 293/hKLB/FGFR1c/SRE-Luc cells” value in test [1] is 1 nM. In test [3], the Kd turned out to be 2.3 nM, the koff turned out to be 0.00197 s⁻¹, the on-rate constant (kon) was 860000 M⁻¹ s⁻¹ and the t1/2 amounted to 5.9 min. Also, in test [4], the Kd was found to be 37.2 nM, the off-rate (koff) was 0.0237 s⁻¹, the kon was determined as 640000 M⁻¹ s⁻¹ and the t1/2 was 0.5 min. In test [5], the Kd was 4.4 nM, the koff was determined as 0.00549 s⁻¹, the kon is 1.25e+06 M⁻¹ s⁻¹ and the t1/2 stood at 2.1 min. In [6], the Kd amounted to 64 nM, the koff was 0.053 s⁻¹, the on-rate constant (kon) stood at 820000 M⁻¹ s⁻¹ and the t1/2 is 0.2 min. Moreover, in test [2], the “% Blocking” value stood at 64%.

As to B6, the binding result in the test with mouse FGF21 and with rat FGF21 was “no binding” each time.

On to B7, for which the “IC50, inhibition of 1 nM FGF21 activation of 293/hKLB/FGFR1c/SRE-Luc cells” value in [1] is 11 nM. Moreover, in [3], the Kd stood at 19.2 nM, the koff was determined as 0.00669 s⁻¹, the kon came to 349000 M⁻¹ s⁻¹ and the t1/2 came to 1.7 min. For the same molecule, in [4], the Kd was found to be 23.2 nM, the off-rate (koff) is 0.00578 s⁻¹, the on-rate (kon) was found to be 250000 M⁻¹ s⁻¹ and the t1/2 was 2 min. Also, in test [5], the Kd worked out at 41.1 nM, the koff is 0.0212 s⁻¹, the on-rate (kon) came out at 516000 M⁻¹ s⁻¹ and the t1/2 turned out to be 0.5 min. Moreover, in [6], the Kd was 46.5 nM, the koff was found to be 0.015 s⁻¹, the kon came out at 323000 M⁻¹ s⁻¹ and the t1/2 turned out to be 0.8 min. Further, in test [2], the “% Blocking” value came out at 98% and the 50% inhibitory concentration (IC50) was 0.076 nM.
